Test results from paper PMC2887978.

Target: MBD2b (UniProt Q9UBB5 150-411)
Assay: EMSA

Chain of MBD2b (Q9UBB5 150-411): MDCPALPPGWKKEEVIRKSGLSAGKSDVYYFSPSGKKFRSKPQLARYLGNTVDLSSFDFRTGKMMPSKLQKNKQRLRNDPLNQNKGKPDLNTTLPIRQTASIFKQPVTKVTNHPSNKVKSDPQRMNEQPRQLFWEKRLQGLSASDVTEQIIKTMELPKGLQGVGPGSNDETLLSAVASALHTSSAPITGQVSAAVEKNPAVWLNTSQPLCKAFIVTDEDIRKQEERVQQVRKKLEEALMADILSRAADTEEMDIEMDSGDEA

B1: C76 (dsDNA)
DNA 1: CCTCACCATCTCAACCAATATTATATTACGCGTATATCGCGTATTTCGCGTTATAATATTGAGGGAGAAGTGGTGA
DNA 2: TCACCACTTCTCCCTCAATATTATAACGCGAAATACGCGATATACGCGTAATATAATATTGGTTGAGATGGTGAGG
  binding result: no binding
